In patent US20230295310A1 (ABCELLERA BIOLOGICS, published 2023):

B1: mAb 63 (antibody, V domains shown)
VH: QVQLVQSGAEVRKPGASVKVSCKASGYTFTGNHMHWVRQAPGQGLEWMGWINPKSGRTNFAQNFQGRVTMTRDTSISTAFMELSRLRSDDTAVYYCARMGDLLLFDFWGQGTLVTVSS
VL: not shown
B2: mAb 45 (antibody, V domains shown)
VH: QAQLVQSGSELKKPGASVKVSCKASGYTFTKHSMNWVRQAPGQGLEWMGWINTNTGNPMYGQGFTGRFVFSLDTSMTTTYLQISSLKAEDTAIYYCAREGDYDLWRGFFNFDYWGQGTLVTVSS
VL: DIQMTQSPSSLSASVGDRVTITCRASQGIRNDLGWYQQKPGKAPKRLIYAASSLQSGVPSRFSGSGSGAEFTLTISSLQPEDFATYYCLQHNSYPRTFGQGTKVEIK
B3: mAb 80 (antibody, V domains shown)
VH: QVQLVQSGAEVKKPGASVKVSCKASGYTFAGYYLHWVRQAPGQGLEWMGWINPNSGRTESAQKFQGRVTLTRDTSITTAYMALSRLRSDDTAIYYCTRLEQLVFDYWGQGTLVTVSS
VL: EIVLTQSPDFQSVTPKEKVTITCRASQSIGSSLHWYQQKPDQSPKLLIKYASQSFSGVPSRFSGSGSGTDFTLTINSLEAEDAATYYCHQSSSLPTFGQGTKVEIK
B4: mAb 89 (antibody, V domains shown)
VH: QVQLVQSGAEVKKPGASVKVSCKASGYTFAGYYLHWVRQAPGQGLEWMGWINPNSGRTESAQKFQGRVTLTRDTSITTAYMALSRLRSDDTAIYYCTRLEQLVFDYWGQGTLVTVSS
VL: DIQMTQSPSSLSASVGDRVTITCRASQGISNYLAWFQQKPGKAPKSLIYAASSLQSGVPSKFSGSGSGTDFTLTISSLQPEDFATYYCQQYNSYPITFGQGTRLEIK
B5: mAb 48 (antibody, V domains shown)
VH: QVQLVQSGAEVKKPGASVKVSCKASGYTFTGYYIHWVRQAPGQGLEWMGWINPKSGNRNYAQKFQGRVTMTRDTSIDTAYMELTRLRSDDTAVYYCARIEQLVFDYWGQGTLVTVSS
VL: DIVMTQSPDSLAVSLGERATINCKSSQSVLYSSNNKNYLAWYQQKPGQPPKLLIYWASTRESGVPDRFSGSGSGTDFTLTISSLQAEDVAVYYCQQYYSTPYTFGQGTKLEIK
B6: mAb 91 (antibody, V domains shown)
VH: QVQLVQSGAEVKKPGASVKVSCKASGYTFTGYYIHWVRQAPGQGLEWMGWINPKSGNTVYAQRFQGRVTMTRDTSISTAYMDLSRLKSDDTAVYYCARLEQLVFDYWGQGALVTVSS
VL: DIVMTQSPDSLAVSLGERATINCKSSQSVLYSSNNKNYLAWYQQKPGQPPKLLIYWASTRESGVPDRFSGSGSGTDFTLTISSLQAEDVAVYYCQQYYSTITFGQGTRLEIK
B7: mAb 87 (antibody, V domains shown)
VH: QVQLVQSGAEMKKPGASVKVSCKASGYTFTDYYLHWVRRAPGHGLEWMGWIYPKSGRRNYAQHFQGRVTMTRDTSINTAYMELSSLRSDDSAVYFCVRLEQLVFDYWGQGTLVTVSS
VL: not shown
B8: mAb 75 (antibody, V domains shown)
VH: QVQLVQSGAEVKKPGASVRVSCKASGYTFTGNYIHWVRLAPGQGLEWMGWINPKSGRTQFVQKFQGRVTMTRDTSITTVYMELSRLRSDDTAVYYCARLGDLLNFDYWGQGTLVTVSS
VL: not shown
B9: mAb 321 (antibody, V domains shown)
VH: QVQLVESGGGVVQPGRSLRLSCVASGFTFRSFGMHWVRQAPGKGLEWVVVISNDGSHKYYVESVKGRFTISRDNSKNTLYLQMNSLRPEDTAVYYCARRDYYGSGMDVWGKGTTVTVSS
VL: SYELTQPPSVSVSPGQTARITCSGDALPKKYAYWYQQKSGQAPVLVIYEDRKRPSGIPERFSGSSSGTMATLTISGAQVEDEADYYCYSTDSSGNHAVFGGGTQLTAL
notes: VH and VL only
B10: mAb 322 (antibody, V domains shown)
VH: QVQLVESGGGVVQPGRSLRLSCVASGFTFRSYGMHWVRQAPGKGLEWVVVISNDGSHKYYVESVKGRFTISRDNSKNTLYLQMNSLRAEDTAVYYCARRDYYGSGMDVWGKGTTVTVSS
VL: SYELTQPPSVSVSPGQTARITCSGDALPKKYAYWYQQKSGQAPVLVIYEDRKRPSGIPERFSGSSSGTMATLTISGAQVEDEADYYCYSTDSSGNHAVFGGGTQLTAL
notes: VH and VL only
B11: mAb 76 (antibody, V domains shown)
VH: QVHLVQSGAEVKKPGASVKVSCKASGHTFTGFYVHWARQAPGQGLEWMGWIYSNSGRTSYSQKFQGRVAMTRDTSISTIYMDLSRLRSDDTAVYYCARLEQLVFDFWGQGTLVTVSS
VL: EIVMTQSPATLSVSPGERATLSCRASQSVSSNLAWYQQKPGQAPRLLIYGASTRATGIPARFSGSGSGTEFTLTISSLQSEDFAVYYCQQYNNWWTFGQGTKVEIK
B12: mAb 84 (antibody, V domains shown)
VH: QVHLVQSGAEVKKPGASVKVSCKASGHSFTGYYVHWARQAPGQGLEWMGWIYSNSGRTSYAQKFQGRVTMTRDTSISTTYMELSRLRSDDTAVYYCARLDQLVFDYWGQGTLVTVSS
VL: not shown
B13: mAb 82 (antibody, V domains shown)
VH: QVHLVQSGAEVKKPGASVKVSCKASGHTFTGYYVHWARQAPGQGLEWMGWIYSNSGRTSYSQKFQGRVAMTRDTSISTIYMDLSRLRSDDTAVYYCARLEQLVFDFWGQGTLVTVSS
VL: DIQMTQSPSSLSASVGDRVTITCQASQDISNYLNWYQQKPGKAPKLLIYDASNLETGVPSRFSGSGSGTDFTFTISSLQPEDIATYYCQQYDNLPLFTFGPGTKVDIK
B14: mAb 88 (antibody, V domains shown)
VH: QVHLVQSGAEVKKPGASVKVSCKASGHTFTGYYVHWARQAPGQGLEWMGWIYSNSGRTSYSQKFQGRVAMTRDTSINTIYMDLSRLRSDDTAVYYCARLEQLVFDFWGQGTLVTVSS
VL: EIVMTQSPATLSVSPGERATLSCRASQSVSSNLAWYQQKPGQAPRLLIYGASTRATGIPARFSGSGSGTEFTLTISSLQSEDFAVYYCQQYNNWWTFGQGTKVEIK
B15: mAb 64 (antibody, V domains shown)
VH: QVQLMPSGAEVKEPGASVKVSCKASGYTFTGYYMHWVRQAPGQGLEWMGWINPNSGRTSYAKNFQGRVTMTRDTSISTAYMELSRLRSDDTAVYYCARIEQLVFDYWGQGTLVTVSS
VL: not shown

What was measured:
[1] = target: T1, cynomolgus monkey CD3 expressed on primary T cells (cynomolgus monkey, UniProt Q95LI5 22-198; Q95LI8 22-171; Q95LI7 23-181); test: flow cytometry, 25 nM, cyno primary T cells
T1 construct: whole, on cells; CD3 complex on purified cynomolgus monkey T cells; also called cyno CD3
T1 sequence (Q95LI5 22-198, chain 1 of 3): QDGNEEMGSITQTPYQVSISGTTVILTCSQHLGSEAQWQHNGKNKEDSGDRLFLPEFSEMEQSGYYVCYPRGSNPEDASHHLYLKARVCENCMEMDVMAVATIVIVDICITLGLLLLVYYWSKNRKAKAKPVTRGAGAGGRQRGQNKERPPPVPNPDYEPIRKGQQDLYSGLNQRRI
T1 sequence (Q95LI8 22-171, chain 2 of 3): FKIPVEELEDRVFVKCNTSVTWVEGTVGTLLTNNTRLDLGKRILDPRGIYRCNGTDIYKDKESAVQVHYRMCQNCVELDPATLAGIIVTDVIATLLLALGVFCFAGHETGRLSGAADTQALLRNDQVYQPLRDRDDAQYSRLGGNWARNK
T1 sequence (Q95LI7 23-181, chain 3 of 3): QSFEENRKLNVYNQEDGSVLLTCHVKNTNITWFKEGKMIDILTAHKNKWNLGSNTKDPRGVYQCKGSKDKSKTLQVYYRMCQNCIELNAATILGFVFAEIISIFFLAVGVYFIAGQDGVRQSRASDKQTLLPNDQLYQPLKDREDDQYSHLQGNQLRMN
How it was run: (§1)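 Binding readout: MFI divided by isotype-control MFI (fold over isotype), positive at ≥10. Cells were stained with 25 nM antibody, 30 min, 4° C, in PBS/2% FBS before flow cytometry.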

[2] = target: T2, human CD3 expressed on cells (human, UniProt P07766 23-207; P04234 22-171; P09693 23-182); test: flow cytometry, 25 nM, Jurkat cells (human primary T cells in c4 also <10)
T2 construct: whole, on cells; CD3 complex on Jurkat cells and on human primary T cells
T2 sequence (P07766 23-207, chain 1 of 3): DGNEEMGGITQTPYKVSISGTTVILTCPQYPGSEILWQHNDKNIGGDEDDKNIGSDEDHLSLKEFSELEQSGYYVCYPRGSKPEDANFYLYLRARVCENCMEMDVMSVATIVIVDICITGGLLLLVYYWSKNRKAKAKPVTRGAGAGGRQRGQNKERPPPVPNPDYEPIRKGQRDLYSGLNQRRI
T2 sequence (P04234 22-171, chain 2 of 3): as the sequence (Q95LI8 22-171, chain 2 of 3) above, with V5I, K15N, V20I, T32S, N33D, N34I, A64T, N74S, L83V, R141H counted along it
T2 sequence (P09693 23-182, chain 3 of 3): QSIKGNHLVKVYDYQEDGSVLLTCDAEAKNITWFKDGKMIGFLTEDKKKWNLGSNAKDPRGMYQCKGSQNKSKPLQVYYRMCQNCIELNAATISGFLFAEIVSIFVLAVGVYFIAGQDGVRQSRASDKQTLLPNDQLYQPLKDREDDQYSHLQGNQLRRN
Procedure: Purified antibodies were confirmed to bind CD3 expressed on cells using the CytoFLEX S or LX flow cytometers (Beckman Coulter). Antibodies were diluted to 25 nM in FACS buffer (PBS+2% FBS) and were incubated with CD3-expressing cells for 30 minutes at 4° C. […] The median fluorescence intensity of the binding signal for each antibody was normalized to the isotype control to obtain a fold over isotype value. An antibody with a fold over isotype (FOI) of ≥10 was considered to be positive for binding.

[3] = target: T2, human CD3 expressed on cells; test: flow cytometry, 25 nM
How it was run: as §1

[4] = target: T3, cynomolgus monkey CD3 (cynomolgus monkey, UniProt Q95LI5 22-198; Q95LI8 22-171; Q95LI7 23-181); test: flow cytometry, cyno primary T cells
T3 construct: whole, on cells; CD3 on purified cynomolgus monkey CD3 pan T cells; also called cyno CD3; CD3 on cyno primary T cells
T3 sequence (Q95LI5 22-198, chain 1 of 3): as the sequence (Q95LI5 22-198, chain 1 of 3) above
T3 sequence (Q95LI8 22-171, chain 2 of 3): as the sequence (Q95LI8 22-171, chain 2 of 3) above
T3 sequence (Q95LI7 23-181, chain 3 of 3): as the sequence (Q95LI7 23-181, chain 3 of 3) above
How it was run: as §1

Binder | binding result [1] | binding result [2] | Human primary T Cell Binding (FOI) [3] | binding result [4]
B1 | no binding (tested: FOI >=10 = positive) | no binding (tested: FOI >=10 = positive) | 0.842 FOI | 
B2 | no binding (tested: FOI >=10 = positive) | no binding (tested: FOI >=10 = positive) | 0.891 FOI | 
B3 | no binding (tested: FOI >=10 = positive) | no binding (tested: FOI >=10 = positive) | 0.905 FOI | 
B4 | no binding (tested: FOI >=10 = positive) | no binding (tested: FOI >=10 = positive) | 0.594 FOI | 
B5 | no binding (tested: FOI >=10 = positive) | no binding (tested: FOI >=10 = positive) | 1.3 FOI | 
B6 | no binding (tested: FOI >=10 = positive) | no binding (tested: FOI >=10 = positive) | 0.746 FOI | 
B7 | no binding (tested: FOI >=10 = positive) | no binding (tested: FOI >=10 = positive) | 0.715 FOI | 
B8 | no binding (tested: FOI >=10 = positive) | no binding (tested: FOI >=10 = positive) | 0.694 FOI | 
B9 |  |  |  | no binding (tested: FOI ≥10 = positive; 25 nM)
B10 |  |  |  | no binding (tested: FOI ≥10 = positive; 25 nM)
B11 | no binding (tested: FOI >=10 = positive) | no binding (tested: FOI >=10 = positive) | 0.921 FOI | 
B12 | no binding (tested: FOI >=10 = positive) | no binding (tested: FOI >=10 = positive) | 0.805 FOI | 
B13 | no binding (tested: FOI >=10 = positive) | no binding (tested: FOI >=10 = positive) | 0.954 FOI | 
B14 | no binding (tested: FOI >=10 = positive) | no binding (tested: FOI >=10 = positive) | 0.885 FOI | 
B15 | no binding (tested: FOI >=10 = positive) | no binding (tested: FOI >=10 = positive) | 0.816 FOI | 
